Where a chain is given by its changes, count along the chain named.
T1: human SLC34A2 (human, UniProt O95436 1-690)
T1 construct: whole, on cells; also called human solute carrier 34 A2; NaPi2b
T1 sequence (looked up): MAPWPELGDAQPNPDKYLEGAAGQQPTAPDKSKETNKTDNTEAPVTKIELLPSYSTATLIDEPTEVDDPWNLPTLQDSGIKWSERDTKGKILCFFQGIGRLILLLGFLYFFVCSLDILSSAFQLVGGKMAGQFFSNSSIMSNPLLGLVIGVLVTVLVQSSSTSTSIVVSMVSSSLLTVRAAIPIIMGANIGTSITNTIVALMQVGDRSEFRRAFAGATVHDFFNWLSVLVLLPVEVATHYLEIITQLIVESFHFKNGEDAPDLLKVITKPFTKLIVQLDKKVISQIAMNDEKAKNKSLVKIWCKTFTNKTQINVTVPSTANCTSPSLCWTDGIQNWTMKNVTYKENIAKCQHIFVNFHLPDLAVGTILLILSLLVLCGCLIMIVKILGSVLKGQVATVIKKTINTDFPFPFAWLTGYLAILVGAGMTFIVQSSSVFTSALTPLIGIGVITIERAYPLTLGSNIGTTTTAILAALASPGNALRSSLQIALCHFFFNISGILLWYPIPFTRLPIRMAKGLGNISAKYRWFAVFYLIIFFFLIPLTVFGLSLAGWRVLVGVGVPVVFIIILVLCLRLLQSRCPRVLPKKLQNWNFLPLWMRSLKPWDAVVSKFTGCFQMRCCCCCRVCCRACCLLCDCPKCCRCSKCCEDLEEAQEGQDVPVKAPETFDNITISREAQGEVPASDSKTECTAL

B1: 30H9B8F9.p1.z1 hIgG1 (antibody, V domains shown)
VH: QVQLVQSGAEVKKPGASVKVSCKASGYTFTTNNMHWVRQAPGQGLEWMGAIYPGSGATAYNQKFKGRVTMTRDTSTSTVYMELSSLRSEDTAVYYCASGMYGHGAMDYWGQGTLVTVSS
VL: DIQLTQSPSFLSASVGDRVTITCKASQDVGTAVAWYQQKPGKAPKLLIYWATTRHSGVPSRFSGSGSGTEFTLTISSLQPEDFATYYCQQYSSNPLTFGQGTKLEIK
notes: humanized hIgG1
B2: 30H9B8F9.p1.z15 hIgG1 (antibody, V domains shown)
VH: QVQLVQSGAEVVKPGASVKMSCKTSGYTFTTNNMHWVKQAPGQGLEWIGAIYPGSGATAYNQKFKGRATLTADKSTSTAYMELSSLRSEATAVYYCARGMYGHGAMDYWGQGTSVTVSS
VL: B1 VL with L4M, A43S, S60D, T72I, L73F, L78V, Y87F, Q100A
notes: humanized hIgG1
B3: 30H9B8F9.p1.z2 hIgG1 (antibody, V domains shown)
VH: B1 VH
VL: B1 VL with A43S, S60D, L73F, Y87F
notes: humanized hIgG1
B4: 30H9B8F9.p1.z10 hIgG1 (antibody, V domains shown)
VH: B2 VH with M20V, K38R, A68V, S114L
VL: B1 VL with A43S, S60D, L73F, Y87F
notes: humanized hIgG1
B5: 30H9B8F9.p1.z8 hIgG1 (antibody, V domains shown)
VH: B1 VH with A24T, M48I, R72A, S98R
VL: DIVMTQSPSFLSASVGDRVTITCKASQDVGTAVAWYQQKPGKSPKLLIYWATTRHSGVPDRFTGSGSGTDFIFTISSVQPEDFATYFCQQYSSNPLTFGAGTKLEIK
notes: humanized hIgG1
B6: 30H9B8F9.p1.z14 hIgG1 (antibody, V domains shown)
VH: B2 VH
VL: B1 VL with A43S, S60D, L73F, Y87F
notes: humanized hIgG1
B7: 30H9B8F9.p1.z4 hIgG1 (antibody, V domains shown)
VH: B1 VH
VL: B5 VL
notes: humanized hIgG1
B8: 30H9B8F9.p1.z12 hIgG1 (antibody, V domains shown)
VH: B2 VH with M20V, K38R, A68V, S114L
VL: B5 VL
notes: humanized hIgG1
B9: 30H9B8F9.p1.z7 hIgG1 (antibody, V domains shown)
VH: B1 VH with A24T, M48I, R72A, S98R
VL: B5 VL with V3Q, T63S, D70E
notes: humanized hIgG1
B10: 30H9B8F9.p1.z3 hIgG1 (antibody, V domains shown)
VH: B1 VH
VL: B5 VL with V3Q, T63S, D70E
notes: humanized hIgG1
B11: 30H9B8F9.p1.z11 hIgG1 (antibody, V domains shown)
VH: B2 VH with M20V, K38R, A68V, S114L
VL: B5 VL with V3Q, T63S, D70E
notes: humanized hIgG1
B12: xi11F6H8 hIgG1 (antibody, V domains shown)
VH: EVQLQQSGPELVKPGASVKISCKTSGFTFTEYTMHWVKQSHGKSLEWIGGINPNNGISSYNQNFKGKATLTVDKSSSTAYMELRSLTSEDSTVYYCARCRYYDTSYYDMDYWGQGTSVTVSS
VL: DIQMTQTTSSLSASLGDRVTISCRASQDIRNFLNWYQQKPDGTVKLLIYYTSRLHSGVPSRFSGSGSGTDYSLTISNLEEEDIATYFCQQSNTLPWTFGGGTKLEIK
notes: chimeric, hIgG1
B13: 30H9B8F9.p1.z16 hIgG1 (antibody, V domains shown)
VH: B2 VH
VL: B5 VL
notes: humanized hIgG1
B14: xi95H11A1D8VH-1 hIgG1 (antibody, V domains shown)
VH: QVQLQQPGAELVKPGASVKMSCKTSGYTFTTNNMHWVKQTPGQGLEWIGAIYPGNGATAYNQKFKGKATLTADKSSSTAYMQLSSLTSEASAVYYCARGMYGHGAMDYWGQGTSVIVSS
VL: DIVLTQSPATLSVTPGDSVSLSCRARQNIGNNLYWYQQKSNESPRLLIKYASQSISGIPSRFSGSGSGTDFTLTINSVETEDFGVYFCQQSFSWPLTFGAGTKLELK
notes: chimeric, hIgG1; the suffix VH-1 is not explained
B15: xi20H2F1 hIgG1 (antibody, V domains shown)
VH: EVKLVESGGNLVKPGGSLKLSCAASGFTFSSYAMSWVRQTPEKRLEWVASISNGGTTYYPDSVKGRFTISRDVARNILYLQMTSLRSEDTAMYYCARTHYRDFVYWGQGTLVTVSA
VL: EIVLTQAAFSNPVTLGTSASISCRSSKSLLHSNGITYLYWYLQKPGQSPQLLIYQMSNLASGVPDRFSCSGSGTDFTLRISRVEAEDVGVYYCAQNLEFPWTFGGGTKLEIK
notes: chimeric, hIgG1
B16: 62G10E4G8.p3.z7 hIgG1 (antibody, V domains shown)
VH: QVQLVQSGAEVKKPGASVKVSCKASGYTFPSYITHWVRQAPGQGLEWIGAIYPGNADTSYIQKFKGRVTMTADKSTSTVYMELSSLRSEDTAVYYCARGTYGTSAWFTYWGQGTLVTVSS
VL: EIVLTQSPATLSVSPGERATLSCRARQNIGNNLYWYQQKPGQSPRLLIKYASQSISGIPSRFSGSGSGTDFTLTISSLQSEDFAVYFCQQSFSWPLTFGQGTKLEIK
notes: humanized hIgG1
B17: 62G10E4G8.p3.z4 hIgG1 (antibody, V domains shown)
VH: B16 VH with I48M, A72R, K74T
VL: B16 VL with V13A, L78V, Q100A
notes: humanized hIgG1
B18: 62G10E4G8.p3.z16 hIgG1 (antibody, V domains shown)
VH: B16 VH with K12V, V20M, R38K, V68A, M70L, V79A
VL: B16 VL with V13A, L78V, Q100A
notes: humanized hIgG1
B19: 62G10E4G8.p3.z12 hIgG1 (antibody, V domains shown)
VH: B16 VH with R38K, M70L, V79A
VL: B16 VL with V13A, L78V, Q100A
notes: humanized hIgG1
B20: 62G10E4G8.p3.z6 hIgG1 (antibody, V domains shown)
VH: B16 VH
VL: B16 VL with L4M, S60A, D70E
notes: humanized hIgG1
B21: 62G10E4G8.p3.z5 hIgG1 (antibody, V domains shown)
VH: B16 VH
VL: B16 VL with L4M, S43A, K49Y, S60A, D70E, F87Y
notes: humanized hIgG1
B22: 62G10E4G8.p3.z2 hIgG1 (antibody, V domains shown)
VH: B16 VH with I48M, A72R, K74T
VL: B16 VL with L4M, S60A, D70E
notes: humanized hIgG1
B23: 62G10E4G8.p3.z10 hIgG1 (antibody, V domains shown)
VH: B16 VH with R38K, M70L, V79A
VL: B16 VL with L4M, S60A, D70E
notes: humanized hIgG1
B24: 62G10E4G8.p3.z9 hIgG1 (antibody, V domains shown)
VH: B16 VH with R38K, M70L, V79A
VL: B16 VL with L4M, S43A, K49Y, S60A, D70E, F87Y
notes: humanized hIgG1
B25: 62G10E4G8.p3.z14 hIgG1 (antibody, V domains shown)
VH: B16 VH with K12V, V20M, R38K, V68A, M70L, V79A
VL: B16 VL with L4M, S60A, D70E
notes: humanized hIgG1
B26: 62G10E4G8.p3.z3 hIgG1 (antibody, V domains shown)
VH: B16 VH with I48M, A72R, K74T
VL: B16 VL
notes: humanized hIgG1
B27: 62G10E4G8.p3.z1 hIgG1 (antibody, V domains shown)
VH: B16 VH with I48M, A72R, K74T
VL: B16 VL with L4M, S43A, K49Y, S60A, D70E, F87Y
notes: humanized hIgG1

Tests used:
[1] = target: T1, human SLC34A2; experiment: FACS, OVCAR3 cells
Protocol: The binding of these humanized antibodies to OVCAR3 cells was evaluated as described above, and the results are shown in FIG. 12A-D and Tables 16A-D.

[2] = target: T1, human SLC34A2; experiment: FACS, OVCAR3 cells; remark: listed apart in the source
Protocol: In this example, cell based binding of chimeric antibodies (hIgG1) prepared from the murine antibodies on human SLC34A2 expressing cells were assessed using flow cytometry.
(§1) Briefly, OVCAR3 cells or HEK293 cells expressing human SLC34A2 were incubated with chimeric antibodies (from 200 nM, 4 folds dilution, 8 points). After incubation at 4° C. for 60 minutes, the cells were washed with FACS buffer twice, then stained with fluorescent conjugated secondary antibody at 4° C. for 30 minutes. After that the cells were washed twice and analyzed by flow cytometry.

[3] = target: T1, human SLC34A2; experiment: FACS, HEK293/human SLC34A2 cells
Protocol: as §1

Binder	EC50 [1] [nM]	Top (MFI) [1] [MFI]	EC50 [2] [nM]	Top (MFI) [2] [MFI]	EC50 [3] [nM]	Top (MFI) [3] [MFI]
B1	2.75	27100	–	–	–	–
B2	1.05	26500	–	–	–	–
B3	3.09	25200	–	–	–	–
B4	1.93	30700	–	–	–	–
B5	1.9	26200	–	–	–	–
B6	1.31	27300	–	–	–	–
B7	2.76	20400	–	–	–	–
B8	1.4	27600	–	–	–	–
B9	1.69	26700	–	–	–	–
B10	2.38	19600	–	–	–	–
B11	1.43	27000	–	–	–	–
B12	–	–	4.9	41300	1.92	111000
B13	1.41	26500	–	–	–	–
B14	–	–	–	–	63.4	12700
B15	–	–	2.73	26500	1.31	42000
B16	6.08	26800	–	–	–	–
B17	16.3	29900	–	–	–	–
B18	10.9	31900	–	–	–	–
B19	2.96	25400	–	–	–	–
B20	8.06	28200	–	–	–	–
B21	~1360	~230000	–	–	–	–
B22	32.9	29700	–	–	–	–
B23	4.87	27400	–	–	–	–
B24	24.1	31300	–	–	–	–
B25	4.58	27900	–	–	–	–
B26	17.3	31300	–	–	–	–
B27	944	87700	–	–	–	–

— patent US20240301052A1 (LANOVA MEDICINES DEVELOPMENT, published 2024)
